Experiment [1] deals with T1, recombinant human TLR4-MD2 protein (R&D Systems) (human, UniProt O00206 24-631; Q9Y6Y9 17-160).
T1 construct: range 24-631;range 17-160; Bought protein, described as a mixture of recombinant human TLR4 and MD2 proteins expressed in NS0 cells; also called recombinant-TLR4-MD2 protein; soluble recombinant TLR4-MD2
The experiment is described as follows: fluorescence polarization, 2 µM FITC-SPA4 with 0-5.6 µM TLR4-MD2, one-site fit, average Kd with blank subtraction; with blank subtraction.
Method: (§1) Experimental data were curve-fitted using Graphpad Prism program, and the binding affinity (Kd) was determined.
(§2) Lower values of the Kd indicate strong binding affinity.

The target in experiment [2] is T1, recombinant human TLR4-MD2 protein (R&D …). The experiment is described as follows: fluorescence polarization, 2 µM FITC-SPA4 peptide with increasing recombinant TLR4-MD2, one-site binding fit, one representative experiment.
Method: The background fluorescence polarization values were subtracted and plotted. The binding plot was then fitted into a one-site binding model using standard regression analysis and Kd values were noted. Results are from one representative experiment out of a total of three separate experiments performed at different times.
Regression analysis was carried out using the Graphpad Prism program (Graphpad software, La Zolla, Calif.). Experimental data were curve-fitted using Graphpad Prism program, and the binding affinity (Kd) was determined.
For experiment [3] the target is unchanged. The experiment is described as follows: fluorescence polarization, 2 µM FITC-SPA4 with 0-5.6 µM TLR4-MD2, one-site fit, average Kd without blank subtraction; without blank subtraction.
Method: as §1, §2

Primed or numbered codes have the meaning given here. No end group written: not given here. FITC′ = fluorescein isothiocyanate; Ahx = NCCCCCC(=O)O

T1 sequence (O00206 other isoform, or with tags, fused parts or gaps limits assumed, form in doubt, chain 1 of 2): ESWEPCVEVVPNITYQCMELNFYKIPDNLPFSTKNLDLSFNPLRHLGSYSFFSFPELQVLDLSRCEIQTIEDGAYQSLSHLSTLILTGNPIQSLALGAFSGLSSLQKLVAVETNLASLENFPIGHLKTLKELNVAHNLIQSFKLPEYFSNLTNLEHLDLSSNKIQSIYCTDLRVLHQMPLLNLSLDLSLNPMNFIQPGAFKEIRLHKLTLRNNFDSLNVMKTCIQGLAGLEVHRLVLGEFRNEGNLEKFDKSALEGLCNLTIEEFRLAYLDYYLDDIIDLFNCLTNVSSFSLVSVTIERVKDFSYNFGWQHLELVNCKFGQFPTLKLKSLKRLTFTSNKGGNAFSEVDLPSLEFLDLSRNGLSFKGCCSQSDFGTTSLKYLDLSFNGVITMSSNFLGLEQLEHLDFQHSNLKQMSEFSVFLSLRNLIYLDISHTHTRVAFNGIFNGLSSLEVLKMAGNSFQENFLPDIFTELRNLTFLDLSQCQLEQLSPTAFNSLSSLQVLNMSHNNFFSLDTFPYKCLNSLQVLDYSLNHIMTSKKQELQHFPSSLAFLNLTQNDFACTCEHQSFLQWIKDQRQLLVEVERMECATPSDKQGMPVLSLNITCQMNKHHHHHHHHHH
T1 sequence (Q9Y6Y9 other isoform, or with tags, fused parts or gaps limits assumed, form in doubt, chain 2 of 2): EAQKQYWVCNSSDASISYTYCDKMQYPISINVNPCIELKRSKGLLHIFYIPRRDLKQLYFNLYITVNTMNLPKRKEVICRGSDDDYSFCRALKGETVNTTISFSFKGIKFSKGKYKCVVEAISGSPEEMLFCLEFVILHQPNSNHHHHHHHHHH

B1: FITC-SPA4 peptide (peptide)
peptide: {FITC′-Ahx}-GDFRYSDGTPVNYTNWYRGE
notes: also called fluorescein isothiocyanate conjugated SPA4 peptide
B1: the values for the dissociation constant Kd in experiment [1], in experiment [2] and in experiment [3] were 407 nM, 314 nM and 255 nM, respectively.
